From patent US20240101717A1 (BIONECURE THERAPEUTICS, published 2024)

Target: T1, human Trop-2 (human, UniProt P09758 27-323)
T1 sequence (looked up): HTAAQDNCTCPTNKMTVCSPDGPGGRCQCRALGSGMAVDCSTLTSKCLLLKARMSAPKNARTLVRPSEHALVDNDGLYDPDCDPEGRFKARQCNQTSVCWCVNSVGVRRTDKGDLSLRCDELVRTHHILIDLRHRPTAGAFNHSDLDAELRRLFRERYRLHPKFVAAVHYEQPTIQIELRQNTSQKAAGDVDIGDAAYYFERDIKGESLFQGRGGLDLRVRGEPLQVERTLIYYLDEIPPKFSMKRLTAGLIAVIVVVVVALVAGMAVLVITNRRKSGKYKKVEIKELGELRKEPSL
Assay: cell-based or functional assay

B1: A1,2X4-MMAE ADC (antibody, V domains shown)
VH: QVQLQESGPGLVKPSETLSLTCTVSGFSLTSYGVNWIRQPPGKGLEWIGVMWAGGSTNYNSALMSRLTISKDTSKNQFSLKLSSVTAADTAVYYCARDENWDGAWFAYWGQGTLVTVSS
VL: DIVMTQSPDSLAVSLGERATINCKSSQSLLNSGTRKNYLAWYQQKPGQPPKLLISWASSRESGVPDRFSGSGSGTDFTLTISSLQAEDVAVYYCKQSYNLFTFGGGTKVEIK
modifications: MMAE-linker conjugated to the antibody; positions not given
IC50 (nM), in vitro cytotoxicity assay on MDA-MB-468 cells: 0.389 nM
